Assay [1] deals with Giardia lamblia virus strain GLV-HP capsid protein (Giardia lamblia virus (strain GLV-HP)). Briefly: cryo-EM structure; single-particle analysis of purified virions plunge-frozen on holey carbon grids; 300-kV Titan Krios; icosahedral symmetry imposed; atomic models of CP-A and CP-B built into the maps.
Assay [2] addresses Giardia lamblia virus strain GLV-CAT capsid protein (Giardia lamblia virus (strain GLV-CAT)). The description is as above.

On to “Giardia lamblia virus strain GLV-HP capsid protein (natural protein)”, for which the stoichiometry N (CP dimers (CP-A and CP-B) in the capsid) in assay [1] worked out at 60.

In turn, “Giardia lamblia virus strain GLV-CAT capsid protein (natural protein)” registered a stoichiometry N (CP dimers (CP-A and CP-B) in the capsid) in assay [2] of 60.

The record behind these values is PMC11081498.
